In one data set the test system is RAW264.7 cells. Briefly: MTT cell viability assay, RAW264.7. The format is cell-based, murine. The method, then: FIGS. 5A and B are bar charts showing the dose-dependent inhibitory effect of A464R on LPS-induced TNFα in murine RAW264.7 cells. A464 (SEQ ID NO. 20) was added to the cells at a concentration of 5, 20 or 50 μM 1 hour before stimulating with 100 ng/ml LPS. Supernatant was collected 24 hours after stimulation and assayed for TNFα by ELISA (A) and cells were assayed for viability by the MTT assay (B.). No peptides were added to the control wells (black bars). Data is representative of at least three experiments each performed in triplicate and is expressed as mean±s.d;
FIGS. 10A and B are bar charts showing the effect of A464 on poly(I:C)-induced TNFα in murine RAW264.7 cells. Cells were seeded in 96 well plates (1.5×10^5 cells/nil) 24 hours before treatment. A464 (SEQ ID NO. 20) was added to the cells at a concentration of 5, 20 or 50 μM 1 hour before stimulating with 25 μg/ml Poly(I:C). […] Data is representative of at least three experiments each performed in triplicate and is expressed as mean±s.d;
Cell viability was measured by assessing mitochondrial function using an MTT (3-(4,5-Dimethylthiazol-2-yl)-2,5-diphenyltetrazolium bromide) assay. […] MTT was then removed and 200 μl per well of dimethyl sulphoxide (DMSO) was added and cells incubated for 20 min at 37° C. in the dark, prior to absorbance being read at 595 nm on a spectrophotometer.

The test system of another data set is IRF3. Description: LPS-induced IRF3 activation, IRF3-GAL4 reporter assay in HEK293_TLR4 cells. Format: cell-based, human. The settings on record: peptide 1, 5 or 10 μM, 10 ng/ml LPS 6 h. Here is the method: FIG. 26 is a bar chart showing the effect of A464 on LPS-induced IRF3 activation in HEK293 cells. HEK293_TLR4 cells were seeded in 96 well plate (1.5×10^5 cells/ml) 24 hours before transfection with the plasmid DNA. Cells were transfected with a plasmid encoding IRF3-GAL4, together with pFR-luciferase and TK-Renilla reporter gene plasmids. The total amount of plasmid DNA transfected into the cells was made up to 230 ng/well by adding pcDNA. A464 (SEQ ID NO. 20) was added to the cells at a concentration of 1, 5 or 10 μM the next day, and cells were stimulated with 10 ng/ml LPS 1 hour after treatment with the peptide for 6 hours. Cells were harvested and assayed for IRF3 activation by reporter gene assay. No peptides were added to the control wells (black bars). Data is representative of two experiments, each performed in triplicate and is expressed as mean fold induction±s.d. relative to control levels;
HEK293 cells were transfected using GeneJuice® a proprietary non-toxic transfection reagent. 200 μl/well cells at a density of 1×10^5 cells/ml were seeded the day before transfection. 0.8 μl of GeneJuice was mixed with 9.2 μl of serum-free DMEM (SFM) per transfection and incubated for 5 min at room temperature before adding the appropriate amount of the plasmid DNA. […] Luciferase activity was analysed using a luminometer.
A general note: A reporter such as luciferase makes a cellular process visible.

For the sequence KYSFKLILAEYRRRRRRRRR [Peptide A464], the “toxicity (MTT) in the presence of LPS” value in the data set on RAW264.7 cells (100 ng/ml LPS, 24 h) is “no toxicity at the concentrations of 5 and 20 μM”. For the same sequence, the “toxicity (MTT) in the absence of LPS” value with RAW264.7 cells (no LPS) is listed as “some cytotoxicity at 20 μM”. The “inhibition of LPS-induced IRF3 activation” value with IRF3 was “completely inhibited LPS-induced IRF3 activation at 1 μM”.

The record behind these values is patent publication US8722052B2, “Vaccinia virus protein A46 peptide and use thereof” (priority 2008, dated 2014).
